# PMC3337841
# Target: FRET-GATE-16 (human) (UniProt P60520)
# Sequence (P60520 whole entry): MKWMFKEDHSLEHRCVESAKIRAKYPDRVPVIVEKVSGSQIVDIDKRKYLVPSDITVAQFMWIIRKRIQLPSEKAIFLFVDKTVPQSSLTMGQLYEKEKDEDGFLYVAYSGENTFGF
substance,measurement,value
Atg4A (from UniProt Q8WYN0 1-398) (enzyme),"catalytic efficiency (kcat/KM) of cleavage, FRET-based assay, 37°C, Buffer B",1310 mol^−1S^−1
